Laboratory results taken from patent publication US20150065561A1 (GEORGIA STATE UNIVERSITY RESEARCH FOUNDATION, published 2015).

Target: T1, CYLD (UniProt Q9NQC7 1-956, limits assumed)
T1 construct: also called deubiquitinase CYLD; cylindromatosis
T1 sequence (looked up): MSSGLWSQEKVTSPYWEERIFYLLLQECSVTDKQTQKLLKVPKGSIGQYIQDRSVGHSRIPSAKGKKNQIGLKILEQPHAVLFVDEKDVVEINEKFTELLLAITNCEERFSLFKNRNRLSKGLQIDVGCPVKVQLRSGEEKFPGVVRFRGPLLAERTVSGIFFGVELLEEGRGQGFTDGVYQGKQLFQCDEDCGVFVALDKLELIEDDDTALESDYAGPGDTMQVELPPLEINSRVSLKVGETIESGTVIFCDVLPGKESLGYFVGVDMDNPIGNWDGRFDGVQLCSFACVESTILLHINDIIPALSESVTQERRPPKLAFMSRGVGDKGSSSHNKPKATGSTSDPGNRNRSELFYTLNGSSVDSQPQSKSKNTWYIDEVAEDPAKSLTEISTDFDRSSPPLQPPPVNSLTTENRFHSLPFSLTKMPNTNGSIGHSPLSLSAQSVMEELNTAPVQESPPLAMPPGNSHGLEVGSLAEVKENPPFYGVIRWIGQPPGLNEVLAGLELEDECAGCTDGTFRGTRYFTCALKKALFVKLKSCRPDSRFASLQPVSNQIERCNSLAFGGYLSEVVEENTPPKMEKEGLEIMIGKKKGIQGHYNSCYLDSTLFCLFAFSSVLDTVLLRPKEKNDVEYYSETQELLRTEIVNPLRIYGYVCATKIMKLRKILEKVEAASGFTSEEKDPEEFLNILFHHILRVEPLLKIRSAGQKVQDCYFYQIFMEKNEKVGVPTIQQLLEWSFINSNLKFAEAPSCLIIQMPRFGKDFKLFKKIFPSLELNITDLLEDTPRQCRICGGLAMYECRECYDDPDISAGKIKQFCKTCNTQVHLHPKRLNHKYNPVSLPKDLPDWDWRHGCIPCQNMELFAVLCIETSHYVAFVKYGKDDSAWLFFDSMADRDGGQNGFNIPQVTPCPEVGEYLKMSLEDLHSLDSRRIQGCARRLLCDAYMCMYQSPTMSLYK
Assay: co-immunoprecipitation
Protocol: Western blot, immunoprecipitation and ubiquitination experiments were performed as follows. Western blots were performed using whole-cell extracts, separated on 8 or 10% SDS-PAGE gels, and transferred to polyvinylidine di& uoride membranes. The membrane was blocked with a solution of PBS containing 0.1% Tween 20 (PBS-T) and 5% BSA. The membrane was then incubated in a 1:2,000 dilution of a primary antibody in 5% BSA-PBS-T. After three washes in PBS-T, the membrane was incubated with 1:5,000 dilution of the corresponding secondary antibody in 3% non-fact skim milk-PBS-T. Respective proteins were visualized by using enhanced chemiluminescence detection reagents, according to the manufacturer's instructions. To conduct immunoprecipitation analysis, cell lysates were incubated with 1 μg of primary antibodies overnight, at 4° C., followed by 2-h incubation with protein A/G-agarose beads (Invitrogen). Immunoprecipitates were then suspended in a sample buffer, separated on 8% SDS-PAGE, transferred to polyvinylidine difluoride membrane, and detected by immunoblot analysis, as described above. […]

binding result: no binding
B1: CHIP (enzyme, UniProt Q9UNE7 1-303, looked up)
chain: MKGKEEKEGGARLGAGGGSPEKSPSAQELKEQGNRLFVGRKYPEAAACYGRAITRNPLVAVYYTNRALCYLKMQQHEQALADCRRALELDGQSVKAHFFLGQCQLEMESYDEAIANLQRAYSLAKEQRLNFGDDIPSALRIAKKKRWNSIEERRIHQESELHSYLSRLIAAERERELEECQRNHEGDEDDSHVRAQQACIEAKHDKYMADMDELFSQVDEKRKKRDIPDYLCGKISFELMREPCITPSGITYDRKDIEEHLQRVGHFDPVTRSPLTQEQLIPNLAMKEVIDAFISENGWVEDY
